Measured values published in patent WO2015087187A1 (dated 2015).

T1: recombinant human SOST (rhSOST) (human, UniProt Q9BQB4 24-213)
T1 sequence: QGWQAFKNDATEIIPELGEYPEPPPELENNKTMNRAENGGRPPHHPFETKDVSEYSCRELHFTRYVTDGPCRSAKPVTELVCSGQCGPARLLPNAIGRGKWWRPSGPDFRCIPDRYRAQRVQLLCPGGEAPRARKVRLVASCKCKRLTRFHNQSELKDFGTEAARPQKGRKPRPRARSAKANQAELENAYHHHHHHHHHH

B1: DP1 (antibody, human IgG2, kappa, V domains shown)
VH: EVQLVESGGGLVQPGGSLRLSCAASGFTFSIYAMSWVRQAPGKGLEWVALISGGDTYTYYADSVKGRFTISRDNAKNSLYLQMNSLRAEDTAVYYCARHGYDDFDYWGQGTLVTVSS
VL: DVVMTQSPLSLPVTLGQPASISCRSSQSLLDNDGETYLNWFQQRPGQSPRRLIYQVSKLDSGVPDRFSGSGSGTDFTLKISRVEAEDVGVYYCWQGTHFPHTFGGGTKVEIKR
notes: also called pH1/pL1
B2: DM21 (antibody, V domains shown)
VH: EVQLLESGGGLVQPGGSLRLSCAASGHTFSDYWMQWVRQAPGKGLEWIGAIYPGDGDTRYNQKFKDRFTISRDNSKNTLYLQMNSLRAEDTAVYYCARSMDYWGQGTLVTVSS
VL: DIVMTQSPDSLAVSLGERATINCRASKTVDSYGNSFMHWFQQKPGQPPKLLIYHSSNLESGVPDRFSGSGSGTDFTLTISSLQAEDVAVYYCLQTIEDPYTFGQGTKLEIK
notes: also called mH1/mL2
B3: DP99 (antibody, V domains shown)
VH: EVMLAESGGGLVQPGGSLQLSCAASGFTFSIYAMSWVRQTPEKRLEWVATISGGDTYTYYADSVKGRFTISRDNAKNTLYLHMTGLRSEDTALYYCARHGYDDFDYWGLGTTLTVSS
VL: DVVLTQIPLTLSVTIGQPATISCKSSQSLLDNDGETYLNWLLVRPGQSPKRLIYQVSKLDSGFPERFTGGGSGTDFTLKISRVEAEDLGIYYCWQGTHFPHTFGGGTKLEIK
notes: also called pH99/pL99
B4: DM30 (antibody, V domains shown)
VH: EVQLLESGGGLVQPGGSLRLSCAASGHTFSDYWMQWVRQAPGKGLEWVGAIYPGDGDTRYNQKFKDRFTISRDNSKNTLYLQMNSLRAEDTAVYYCARSMDYWGQGTLVTVSS
VL: DIVMTQSPDSLAVSLGERATINCRASKTVDSYGNSFMHWYQQKPGQPPKLLIYHSSNLESGVPDRFSGSGSGTDFTLTISSLQAEDVAVYYCLQTIEDPYTFGQGTKLEIK
notes: also called mH10/mL3
B5: DM33 (antibody, V domains shown)
VH: EVQLLESGGGLVQPGGSLRLSCAASGFTFSDYWMQWVRQAPGKGLEWVGAIYPGDGDTRYNQKFKDRFTISRDNSKNTLYLQMNSLRAEDTAVYYCARSMDYWGQGTLVTVSS
VL: DIVMTQSPDSLAVSLGERATINCRASKTVDSYGNSFMHWYQQKPGQPPKLLIYHSSNLESGVPDRFSGSGSGTDFTLTISSLQAEDVAVYYCLQTIEHPYTFGQGTKLEIK
notes: also called mH11/mL15
B6: DM34 (antibody, V domains shown)
VH: EVQLLESGGGLVQPGGSLRLSCAASGFTFSDYWMQWVRQAPGKGLEWVGAIYPGDGDTRYNQKFKDRFTISRDNSKNTLYLQMNSLRAEDTAVYYCARSMDYWGQGTLVTVSS
VL: DIVMTQSPDSLAVSLGERATINCRASKTVDSYGNSFMHWYQQKPGQPPKLLIYHSSNLESGVPDRFSGSGSGTDFTLTISSLQAEDVAVYYCLQTIEDSYTFGQGTKLEIK
notes: also called mH11/mL19
B7: DM18 (antibody, V domains shown)
VH: EVQLLESGGGLVQPGGSLRLSCAASGHTFTDYWMQWVRQAPGKGLEWIGAIYPGDGDTRYNQKFKDRFTISRDNSKNTLYLQMNSLRAEDTAVYYCARSMDYWGQGTLVTVSS
VL: DIVMTQSPDSLAVSLGERATINCRASKTVDSYGNSFMHWFQQKPGQPPKLLIHHSSNLESGVPDRFSGSGSGTDFTLTISSLQAEDVAVYYCLQTIDEPYTFGQGTKLEIK
notes: also called wt/mL8
B8: DM32 (antibody, V domains shown)
VH: EVQLLESGGGLVQPGGSLRLSCAASGFTFSDYWMQWVRQAPGKGLEWVGAIYPGDGDTRYNQKFKDRFTISRDNSKNTLYLQMNSLRAEDTAVYYCARSMDYWGQGTLVTVSS
VL: DIVMTQSPDSLAVSLGERATINCRASKTVDSYGNSFMHWFQQKPGQPPKLLIYHSSNLESGVPDRFSGSGSGTDFTLTISSLQAEDVAVYYCLQTIEDPYTFGQGTKLEIK
notes: also called mH11/mL2
B9: DM31 (antibody, V domains shown)
VH: EVQLLESGGGLVQPGGSLRLSCAASGHTFSDYWMQWVRQAPGKGLEWVGAIYPGDGDTRYNQKFKDRFTISRDNSKNTLYLQMNSLRAEDTAVYYCARSMDYWGQGTLVTVSS
VL: DIVMTQSPDSLAVSLGERATINCRASKTVDSYGNSFMHWYQQKPGQPPKLLIYHSSNLESGVPDRFSGSGSGTDFTLTISSLQAEDVAVYYCLQTIEDSYTFGQGTKLEIK
notes: also called mH10/mL19
B10: DM17 (antibody, V domains shown)
VH: EVQLLESGGGLVQPGGSLRLSCAASGHTFTDYWMQWVRQAPGKGLEWIGAIYPGDGDTRYNQKFKDRFTISRDNSKNTLYLQMNSLRAEDTAVYYCARSMDYWGQGTLVTVSS
VL: DIVMTQSPDSLAVSLGERATINCRASKTVDSYGNSFMHWFQQKPGQPPKLLIHHSSNLESGVPDRFSGSGSGTDFTLTISSLQAEDVAVYYCLQTIEDSYTFGQGTKLEIK
notes: also called wt/mL6
B11: DM29 (antibody, V domains shown)
VH: EVQLLESGGGLVQPGGSLRLSCAASGHTFSDYWMQWVRQAPGKGLEWVGAIYPGDGDTRYNQKFKDRFTISRDNSKNTLYLQMNSLRAEDTAVYYCARSMDYWGQGTLVTVSS
VL: DIVMTQSPDSLAVSLGERATINCRASKTVDSYGNSFMHWFQQKPGQPPKLLIYHSSNLESGVPDRFSGSGSGTDFTLTISSLQAEDVAVYYCLQTIEDPYTFGQGTKLEIK
notes: also called mH10/mL2
B12: DM23 (antibody, V domains shown)
VH: EVQLLESGGGLVQPGGSLRLSCAASGFTFSDYWMQWVRQAPGKGLEWIGAIYPGDGDTRYNQKFKDRFTISRDNSKNTLYLQMNSLRAEDTAVYYCARSMDYWGQGTLVTVSS
VL: DIVMTQSPDSLAVSLGERATINCRASKTVDSYGNSFMHWFQQKPGQPPKLLIHHSSNLESGVPDRFSGSGSGTDFTLTISSLQAEDVAVYYCLQTIEDPYTFGQGTKLEIK
notes: also called mH3/wt
B13: DM26 (antibody, V domains shown)
VH: EVQLLESGGGLVQPGGSLRLSCAASGHTFTDYWMQWVRQAPGKGLEWISAIYPGDGDTRYNQKFKDRFTISRDNSKNTLYLQMNSLRAEDTAVYYCARSMDYWGQGTLVTVSS
VL: DIVMTQSPDSLAVSLGERATINCRASKTVDSYGNSFMHWFQQKPGQPPKLLIHHSSNLESGVPDRFSGSGSGTDFTLTISSLQAEDVAVYYCLQTIEDPYTFGQGTKLEIK
notes: also called mH5/wt
B14: DM24 (antibody, V domains shown)
VH: EVQLLESGGGLVQPGGSLRLSCAASGFTFSDYWMQWVRQAPGKGLEWIGAIYPGDGDTRYNQKFKDRFTISRDNSKNTLYLQMNSLRAEDTAVYYCARSMDYWGQGTLVTVSS
VL: DIVMTQSPDSLAVSLGERATINCRASKTVDSYGNSFMHWFQQKPGQPPKLLIYHSSNLESGVPDRFSGSGSGTDFTLTISSLQAEDVAVYYCLQTIEDPYTFGQGTKLEIK
notes: also called mH3/mL2
B15: DM28 (antibody, V domains shown)
VH: EVQLLESGGGLVQPGGSLRLSCAASGHTFTDYWMQWVRQAPGKGLEWIGAIYPGDGDTRYAQSVKGRFTISRDNSKNTLYLQMNSLRAEDTAVYYCARSMDYWGQGTLVTVSS
VL: DIVMTQSPDSLAVSLGERATINCRASKTVDSYGNSFMHWFQQKPGQPPKLLIHHSSNLESGVPDRFSGSGSGTDFTLTISSLQAEDVAVYYCLQTIEDPYTFGQGTKLEIK
notes: also called mH8/wt
B16: DM22 (antibody, V domains shown)
VH: EVQLLESGGGLVQPGGSLRLSCAASGFTFTDYWMQWVRQAPGKGLEWIGAIYPGDGDTRYNQKFKDRFTISRDNSKNTLYLQMNSLRAEDTAVYYCARSMDYWGQGTLVTVSS
VL: DIVMTQSPDSLAVSLGERATINCRASKTVDSYGNSFMHWFQQKPGQPPKLLIHHSSNLESGVPDRFSGSGSGTDFTLTISSLQAEDVAVYYCLQTIEDPYTFGQGTKLEIK
notes: also called mH2/wt
B17: DM20 (antibody, V domains shown)
VH: EVQLLESGGGLVQPGGSLRLSCAASGHTFSDYWMQWVRQAPGKGLEWIGAIYPGDGDTRYNQKFKDRFTISRDNSKNTLYLQMNSLRAEDTAVYYCARSMDYWGQGTLVTVSS
VL: DIVMTQSPDSLAVSLGERATINCRASKTVDSYGNSFMHWFQQKPGQPPKLLIHHSSNLESGVPDRFSGSGSGTDFTLTISSLQAEDVAVYYCLQTIEDPYTFGQGTKLEIK
notes: also called mH1/wt
B18: DM19 (antibody, V domains shown)
VH: EVQLLESGGGLVQPGGSLRLSCAASGHTFTDYWMQWVRQAPGKGLEWIGAIYPGDGDTRYNQKFKDRFTISRDNSKNTLYLQMNSLRAEDTAVYYCARSMDYWGQGTLVTVSS
VL: DIVMTQSPDSLAVSLGERATINCRASKTVDSYGNSFMHWFQQKPGQPPKLLIHHSSNLESGVPDRFSGSGSGTDFTLTISSLQAEDVAVYYCLQTIEFHYTFGQGTKLEIK
notes: also called wt/mL10
B19: DM25 (antibody, V domains shown)
VH: EVQLLESGGGLVQPGGSLRLSCAASGHTFTDYWMQWVRQAPGKGLEWVGAIYPGDGDTRYNQKFKDRFTISRDNSKNTLYLQMNSLRAEDTAVYYCARSMDYWGQGTLVTVSS
VL: DIVMTQSPDSLAVSLGERATINCRASKTVDSYGNSFMHWFQQKPGQPPKLLIHHSSNLESGVPDRFSGSGSGTDFTLTISSLQAEDVAVYYCLQTIEDPYTFGQGTKLEIK
notes: also called mH4/wt

The binders below were run against T1, recombinant human SOST (rhSOST) (assay: cell-based or functional assay).

Point of comparison: B2, “EC50, neutralization of rhSOST-mediated inhibition of Wnt-10B luciferase reporter activity in U-2OS-TF-Wnt10B cells” value 5.53 ug/ml (printed 'Mg/ml'). Against it:
- B1 — higher, 22 ug/ml (printed 'Mg/ml')
- B3 — higher, 5.95 ug/ml (printed 'Mg/ml')

In the case of B3, the “EC50, restoring WNT10b-stimulated luciferase activity suppressed by 1 ug/ml rhSOST in U2OS TOPFlash cells” value is reported as 37 nM.

The binders below were run against T1, recombinant human SOST (rhSOST) (assay: SPR Biacore T200, IgG captured via anti-human Fc, rhSOST analyte, 37 C).

Point of comparison: B6, Kd 1.65 nM. Against it:
- B1 — 2.2-fold higher, 3.7 nM
- B2 — 210-fold lower, 0.008 nM
- B4 — 37-fold lower, 0.045 nM
- B5 — 18-fold lower, 0.093 nM
- B7 — 9.2-fold lower, 0.179 nM
- B8 — 31-fold lower, 0.054 nM
- B9 — 2-fold lower, 0.816 nM
- B10 — 38-fold lower, 0.044 nM
- B11 — 120-fold lower, 0.014 nM
- B12 — 160-fold lower, 0.01 nM
- B13 — 31-fold lower, 0.053 nM
- B14 — 47-fold lower, 0.035 nM
- B15 — 17-fold lower, 0.099 nM
- B16 — 110-fold lower, 0.015 nM
- B17 — 110-fold lower, 0.015 nM
- B18 — 17-fold lower, 0.096 nM
- B19 — 97-fold lower, 0.017 nM
- B3 — 16-fold lower, 0.103 nM

Point of comparison: B16, koff 0.000152 s⁻¹. Against it:
- B1 — 44-fold higher, 0.00667 s⁻¹
- B2 — 2.1-fold lower, 7.41e-05 s⁻¹
- B4 — 1.6-fold higher, 0.000239 s⁻¹
- B5 — 3.7-fold higher, 0.000563 s⁻¹
- B6 — 23-fold higher, 0.00356 s⁻¹
- B7 — 6.8-fold higher, 0.00104 s⁻¹
- B8 — 2.8-fold higher, 0.000419 s⁻¹
- B9 — 11-fold higher, 0.00171 s⁻¹
- B10 — within 1.5-fold, 0.000207 s⁻¹
- B11 — 1.5-fold lower, 0.000101 s⁻¹
- B12 — within 1.5-fold, 0.000134 s⁻¹
- B13 — within 1.5-fold, 0.000222 s⁻¹
- B14 — 1.6-fold higher, 0.000239 s⁻¹
- B15 — 2.3-fold higher, 0.00035 s⁻¹
- B17 — within 1.5-fold, 0.00012 s⁻¹
- B18 — 2.6-fold higher, 0.000388 s⁻¹
- B19 — 1.5-fold lower, 0.000101 s⁻¹
- B3 — 20-fold higher, 0.003 s⁻¹

Point of comparison: B16, kon 1.04e+07 M⁻¹ s⁻¹. Against it:
- B1 — 5.8-fold lower, 1.8e+06 M⁻¹ s⁻¹
- B2 — within 1.5-fold, 8.86e+06 M⁻¹ s⁻¹
- B4 — 1.9-fold lower, 5.34e+06 M⁻¹ s⁻¹
- B5 — 1.7-fold lower, 6.03e+06 M⁻¹ s⁻¹
- B6 — 4.8-fold lower, 2.16e+06 M⁻¹ s⁻¹
- B7 — 1.8-fold lower, 5.81e+06 M⁻¹ s⁻¹
- B8 — within 1.5-fold, 7.75e+06 M⁻¹ s⁻¹
- B9 — 5-fold lower, 2.1e+06 M⁻¹ s⁻¹
- B10 — 2.2-fold lower, 4.7e+06 M⁻¹ s⁻¹
- B11 — within 1.5-fold, 7.41e+06 M⁻¹ s⁻¹
- B12 — within 1.5-fold, 1.39e+07 M⁻¹ s⁻¹
- B13 — 2.5-fold lower, 4.2e+06 M⁻¹ s⁻¹
- B14 — 1.5-fold lower, 6.9e+06 M⁻¹ s⁻¹
- B15 — 3-fold lower, 3.52e+06 M⁻¹ s⁻¹
- B17 — within 1.5-fold, 7.83e+06 M⁻¹ s⁻¹
- B18 — 2.6-fold lower, 4.06e+06 M⁻¹ s⁻¹
- B19 — 1.8-fold lower, 5.81e+06 M⁻¹ s⁻¹
- B3 — 2.8-fold higher, 2.9e+07 M⁻¹ s⁻¹
